± gives the standard deviation of the averaged measurements.
System: ATP
Assay: switch fluorescence ratio, 500 uM ATP over buffer (Cy3 cluster intensity, sum of 5 cycles each) (fold (ratio)); higher = stronger signal-on switching upon ATP binding; sequences stand for … in TCGTCGGCAGCGTCAGATGTGTATAAGAGACAGTTTTTTTTTTTTTTTTTTTTTTTTT…TC
Details: aptamer strand: ATP DNA aptamer (quencher-CACCTGGGGGAGTATTGCGGAGGAAGG + anchor), 100 nM annealed; ATP concentration: 500 uM
How it was run: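 The fluorescence ratio divides summed target-cycle Cy3 intensity by summed buffer-cycle Cy3 intensity for each cluster and is averaged per switch-domain sequence. Cy3-labelled switching-strand clusters on a modified Illumina MiSeq flow-cell were annealed to 100 nM quencher-labelled ATP aptamer, then imaged in selection buffer and again after 15 min with 500 uM ATP at 22 °C. Five such cycles were run, with NaOH stripping and re-annealing between them, and clusters outside 100-1000 RFU were excluded.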
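Also: ATP exposure 15 min at 22 °C before imaging.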

| Sequence | switch fluorescence ratio |
| --- | --- |
| TAGTTTTAGA | 0.98478 ± 9.2e-05 |
| AATACTCGGG | 1.07 ± 0.033 |
| TTTGGCGATT | 0.962 ± 0.017 |
| TAGGTATTGA | 0.987 ± 0.024 |
| TATACTGTAA | 1.14 ± 0.031 |
| ATAGCCTGGT | 0.978 ± 0.018 |
| ATGATTGTCG | 0.994 ± 0.017 |
| CGAGGGACGG | 0.992 ± 0.024 |
| AGGCGCTGGG | 0.999 ± 0.028 |
| ATAGATCTGA | 1.03 ± 0.084 |
| TATGGAGGGG | 0.991 ± 0.032 |
| TAGGCACGCG | 1.027 ± 0.01 |
| CGGTAAGGGC | 0.966 ± 0.038 |
| ACTTTAGGGA | 0.974 ± 0.019 |
| CGTGACCTGT | 0.996 ± 0.022 |
| AGTTGACTTT | 0.986 ± 0.011 |
| TTGGGAAATA | 1.01 ± 0.024 |
| AATGTTTGCT | 1 ± 0.018 |
| CCGCTAGCCT | 2.94 ± 0.53 |
| GTTACATGTT | 0.993 ± 0.024 |
| CAGGAGTAGC | 1.05 ± 0.018 |
| TGTGGAGAAG | 0.974 ± 0.025 |

| Sequence | switch fluorescence ratio |
| --- | --- |
| GTGAGGGGCT | 0.977 ± 0.04 |
| ATTTGAAAGT | 1.02 ± 0.011 |
| TCAATGTGGC | 1.04 ± 0.036 |
| AAAGCGTGTT | 1.02 ± 0.05 |
| TTTATATGAG | 0.999 ± 0.044 |
| TAACAGTGAG | 0.964 ± 0.021 |
| TGCAGTAGCG | 0.9936 ± 0.0051 |
| TCAAGGCGAT | 1.09 ± 0.042 |
| GGGCCTGGTC | 1.02 ± 0.032 |
| GGACGTGGTA | 1.03 ± 0.028 |
| CGTGGGGCAG | 1.01 ± 0.024 |
| CGGTTTTATC | 1.01 ± 0.034 |
| GTGACAAAAA | 1.027 ± 0.0026 |
| TAAAGCTGAT | 1.01 ± 0.012 |
| TGTTGGGGGA | 0.979 ± 0.03 |
| GGGTGACTTA | 0.978 ± 0.04 |
| GGAGGGTTTG | 0.992 ± 0.034 |
| GGTGGGAAGT | 0.987 ± 0.021 |
| AAATCGTAGG | 0.963 ± 0.054 |
| GATGTTCGGC | 1.05 ± 0.037 |
| GCTAAAAAAT | 0.98 ± 0.013 |
